Reference: PMC2853134

B1: B4-Del5 (structured_RNA)
RNA: GGGAGCUAAUGUAGGAUGCUGGGGUAGUCCAGCCCUAGAAUAAGCGCUAGUACUACAAGCUUCUGGAGCUCGGU
B2: B4-Del3 (structured_RNA)
RNA: GGGAGAAUUCAACUGCCAUCUAGGCAAAGAGCUAAUGUAGGAUGCUGGGGUAGUCCAGCCCUAGAAUAAGCGCUAGUACUACAAGCU
B3: MiniB4 (structured_RNA)
RNA: GGGAGCUAAUGUAGGAUGCUGGGGUAGUCCAGCCCUAGAAUAAGCGCUAGUACUACAAGCU

molecular target: T1, TFIIB (UniProt P29055 1-345); experiment: EMSA
T1 sequence: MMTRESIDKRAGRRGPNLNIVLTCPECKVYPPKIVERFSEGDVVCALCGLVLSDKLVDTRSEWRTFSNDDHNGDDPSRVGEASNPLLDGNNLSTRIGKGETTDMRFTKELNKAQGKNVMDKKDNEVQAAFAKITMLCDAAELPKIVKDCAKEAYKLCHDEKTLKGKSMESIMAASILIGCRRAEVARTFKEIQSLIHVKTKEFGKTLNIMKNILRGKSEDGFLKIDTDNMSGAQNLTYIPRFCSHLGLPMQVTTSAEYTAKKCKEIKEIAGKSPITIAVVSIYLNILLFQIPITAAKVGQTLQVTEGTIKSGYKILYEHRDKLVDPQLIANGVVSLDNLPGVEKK

Binding result, binds:
B1, B2, B3
